The text below walks through data of paper PMC9966725, “Preclinical Evaluation of a Lead Specific Chelator (PSC) Conjugated to Radiopeptides for ^203Pb and ^212Pb-Based Theranostics” (Pharmaceutics, 2023).

Where only a bound is given, the exact number is not on record here.

The conditions of data set [1]: cited from earlier work. The source says: Potential ambiguity in these predictions arises due to the nature of the ^212Pb decay series. The decay of ^212Pb to ^212Bi might lead to a decoupling of the progeny ^212Bi from the chelator, adding uncertainty to the biodistribution of radioactivity, especially the α-emitters (i.e., ^212Bi, ^212Po). Using particle and heavy ion transport code system (PHITS) modeling, we have shown that α-particles contribute to more than 90% of dose deposition in 10 µm diameter single cells and 1 cm diameter micro-metastasis, while the dose from β-particles becomes more significant ...

Data set [2] is described as follows: Stability of radiopeptide in saline, radio-HPLC. The class given is physicochemical. As to conditions: 24 h storage in saline, C18, fractions counted on gamma counter. The protocol:
Using [^203Pb]Pb-PSC-PEG-T surrogate, radiochemical stability of [^203Pb]Pb-PSC-PEG-T in saline was monitored for 72 h. Similarly, single species of [^212Bi]Bi-PSC-PEG-T in saline were also monitored for 5 h (five half-lives of ^212Bi). [^203Pb]Pb-PSC-PEG-T and [^212Bi]Bi-PSC-PEG-T were radiolabeled and purified on Sep-Pak® C18 SPE columns as previously described. Next, 7.4 MBq mL^−1 of purified [^203Pb]Pb-PSC-PEG-T and [^212Bi]Bi-PSC-PEG-T were stored in saline supplemented with 5% EtOH and 1 mg mL^−1 sodium ascorbate for 72 h and 5 h, respectively, followed by analysis of radiochemical purity by radio-iTLC method. Then, radiochemical stability of [^212Pb]Pb-PSC-PEG-T and progeny [^212Bi]Bi-PSC-PEG-T were determined by radio-iTLC after storage of 37 MBq mL^−1 radiolabeled [^212Pb]Pb-PSC-PEG-T in saline for 24 h, and further confirmed by radio-HPLC analysis. In human serum, radiochemical stability of [^212Pb]Pb-PSC-PEG-T and progeny [^212Bi]Bi-PSC-PEG-T were determined after incubation of 3.7 MBq [^212Pb]Pb-PSC-PEG-T in 1 mL human serum at 37 °C for 24 h. In addition, metabolic stability of Pb-PSC-PEG-T radiopeptide in serum was determined by radio-HPLC after incubating [^203Pb]Pb-PSC-PEG-T surrogate in human serum for 55 h (five half-lives of ^212Pb). […] The supernatant was collected and analyzed on radio-HPLC. […]

For data set [3], the system named is AR42J xenograft. The experiment in a line: in vivo. Further details: species or system mice. As to conditions: female, athymic nude, mouse, 24 h. The protocol:
(§1) Biodistribution of [^212Pb]Pb-PSC-PEG-T and progeny ^212Bi^3+ was determined in two animal models, including female naïve CD-1Elite mice and athymic mice bearing AR42J tumor xenografts. SSTR2-positve AR42J cells were cultured in 10% Minimum Essential Medium (MEM) supplemented with 10% fetal bovine serum (FBS), 100 units mL^−1 penicillin, and 100 units mL^−1 streptomycin 37 °C in a humidified atmosphere (5% CO2). All animal studies were performed in accordance with the Guide for the Care and Use of Laboratory Animals, according to protocols approved by the University of Iowa Animal Care and Use Committee (protocol#1122453 approved on 16 February 2022). Xenograft of AR42J tumor was developed by subcutaneous (s.c.) injection of 1 × 10^6 cells at the left shoulder of female athymic nude mice. [^212Pb]Pb-PSC-PEG-T was radiolabeled and purified as described above, and kept at room temperature away from light for 3 h before injection, to allow progeny ^212Bi to approach equilibrium before injection. Upon assay, 74 kBq [^212Pb]Pb-PSC-PEG-T (peptide mass = 5–10 pmole) were injected via tail vein (n = 2–3). Animals were euthanized at designated time points (1, 5, 24 h for naïve CD-1 mice; 1, 4 h for AR42J-bearing mice). Organs of interest and tumors were collected, rinsed, and weighed. Radioactivity of ^212Pb and ^212Bi in each sample was measured on an automated gamma counter by 238 keV and 583 keV gamma peaks, respectively. ^212Bi was purified from the generator eluate on RE2 resin and collected in pH = 6 sodium acetate as described above. Biodistribution of free ^212Bi in normal organs was determined at 2 h post injection of 74 kBq ^212Bi in naïve female CD-1 Elite mice (n = 3). Radioactivity in samples was decay corrected and data were expressed as percent injected dose per gram of tissue (%ID/g). SPECT imaging of [^203Pb]Pb-PSC-PEG-T and [^212Pb]Pb-PSC-PEG-T in female athymic nude mice bearing AR42J xenograft (n = 2) was conducted on Bioemtech Gamma-Eye Imaging system (Bioemtech, Athens, Greece) with 30–500 keV dynamic range and 1.9 mm spatial resolution. Whole body 2D-SPECT imaging of [^203Pb]Pb-PSC-PEG-T and [^212Pb]Pb-PSC-PEG-T were collected at 3 h and 24 h (n = 2) post injection of 1.8 MBq [^203Pb]Pb-PSC-PEG-T (52 MBq nmole^−1) and 3.7 MBq [^212Pb]Pb-PSC-PEG-T (20 MBq nmole^−1). SPECT images were generated by acquiring ten 30 s projections. Imaging data were reconstructed and normalized to percent of injected dose (%ID) in tumor and kidneys based on region of interest (ROI) analysis on VISUAL-Eyes software (Bioemtech, Athens, Greece). Animals were euthanized after conclusion of the study at 24 h post injection. Tumor xenografts and organs of interest were collected and weighed. Radioactivity of ^203Pb or ^212Pb was determined on automated gamma counter and normalized to %ID/g.

Data set [4] concerns SSTR2-positive AR42J xenografts. The experiment in a line: in vivo. Further details: species or system mice. To be noted: female, athymic nude, mouse, iv, 74 kBq, 1 h. The protocol:
as §1

Data set [5] in a line: Radiochemical stability of radiometal complex in saline, radio-iTLC. Format: physicochemical. As to conditions: 37 MBq mL^-1 in saline at room temperature for 24 h, regardless of PSC-PEG-T concentration (1, 3, 5 µM). The protocol: Using [^203Pb]Pb-PSC-PEG-T surrogate, radiochemical stability of [^203Pb]Pb-PSC-PEG-T in saline was monitored for 72 h. Similarly, single species of [^212Bi]Bi-PSC-PEG-T in saline were also monitored for 5 h (five half-lives of ^212Bi). [^203Pb]Pb-PSC-PEG-T and [^212Bi]Bi-PSC-PEG-T were radiolabeled and purified on Sep-Pak® C18 SPE columns as previously described. Next, 7.4 MBq mL^−1 of purified [^203Pb]Pb-PSC-PEG-T and [^212Bi]Bi-PSC-PEG-T were stored in saline supplemented with 5% EtOH and 1 mg mL^−1 sodium ascorbate for 72 h and 5 h, respectively, followed by analysis of radiochemical purity by radio-iTLC method. Then, radiochemical stability of [^212Pb]Pb-PSC-PEG-T and progeny [^212Bi]Bi-PSC-PEG-T were determined by radio-iTLC after storage of 37 MBq mL^−1 radiolabeled [^212Pb]Pb-PSC-PEG-T in saline for 24 h, and further confirmed by radio-HPLC analysis. In human serum, radiochemical stability of [^212Pb]Pb-PSC-PEG-T and progeny [^212Bi]Bi-PSC-PEG-T were determined after incubation of 3.7 MBq [^212Pb]Pb-PSC-PEG-T in 1 mL human serum at 37 °C for 24 h. In addition, metabolic stability of Pb-PSC-PEG-T radiopeptide in serum was determined by radio-HPLC after incubating [^203Pb]Pb-PSC-PEG-T surrogate in human serum for 55 h (five half-lives of ^212Pb). Following the incubation, serum protein was precipitated in ice-cold methanol (1:1.5 v/v) for 10 min, followed by centrifugation at 10,000× g for 10 min. The supernatant was collected and analyzed on radio-HPLC.
In radio-iTLC analysis, 0.1 M NaOAc with 1 mM DTPA was used as mobile phase for ^203Pb, ^212Pb, ^212Bi. Citric acid (0.1 M) was used as mobile phase for ^68Ga. Upon radio-iTLC analysis, 2 µL aliquot sample was spotted on the radio-iTLC strips (2 × 10 cm) and developed in the mobile phase. Radioactivity of ^203Pb and ^212Pb was measured on NaI(Tl) gamma spectroscope using 279 keV and 238 keV gamma peaks, respectively. Radioactivity of ^212Bi on radio-iTLC was measured on the Ludlum Model 3030 α-particle counter. Radio-HPLC analysis was conducted on Agilent 1260 (Agilent, Santa Clara, CA, USA). Binary mobile phases were applied to run 5–60% phase B (acetonitrile) over phase A (0.1% TFA in water) over 10 min on ZORBAX RR Eclipse XDB-C18 column (4.6 × 150 mm, 5 µm). Radioactivity of ^203Pb was measured on flow-through 105S-1 single channel radiation detector (Corroll & Ramsey, Fort Collins, CO, USA). To measure ^212Pb and ^212Bi activity on radio-HPLC, eluate was collected every 10 s on a HPLC fraction collector. Radioactivity of ^212Pb and ^212Bi in each collected eluate was measured on Cobra II automated gamma counter using 238 keV and 583 keV gamma peaks immediately after collection.

As to `O=C(O)CN1CCN(CC(=O)O)CCN(CC(=O)O)CCN(CC(=O)O)CC1` [DOTA, 1,4,7,10-tetraazacyclododecane-1,4,7,10-tetraacetic acid], the “^212Bi^3+ released from chelator” value in data set [1] (after β decay of ^212Pb) is “approximately 36%”.
As to `NC(=O)CN1CCN(CC(N)=O)CCN(CC(N)=O)CCN(CC(N)=O)CC1` [TCMC, 1,4,7,10-Tetrakis(carbamoylmethyl)-1,4,7,10-tetraazacyclododecane], the “^212Bi^3+ ejected from chelator” value in data set [1] (TCMC chelator in an anti-CD37 radioimmunoconjugate) was 16%.
With `C[C@@H](O)[C@@H]1NC(=O)[C@H](CCCCN)NC(=O)[C@@H](Cc2c[nH]c3ccccc23)NC(=O)[C@H](Cc2ccc(O)cc2)NC(=O)[C@@H](NC(=O)[C@@H](Cc2ccccc2)NC(=O)CCOCCOCCNC(=O)CN2CCN(CC(=O)O)CCN(CC(N)=O)CCN(CC(=O)O)CC2)CSSC[C@@H](C(=O)N[C@H](CO)[C@@H](C)O)NC1=O` [[^212Pb]Pb-PSC-PEG-T] [metal not drawn], in data set [2], the “radiochemical purity (radiometal remained incorporated as radiopeptide)” value was greater than 95%. Also, the activity in lungs in data set [3] is 0.3 %ID/g. For the same molecule, in data set [4], the “accumulation in adrenal glands” value was determined as 3.6 %ID/g, the accumulation in bones came to 1.4 %ID/g, the accumulation in kidneys turned out to be 28.1 %ID/g and the accumulation in liver stood at 0.8 %ID/g. Moreover, the accumulation in spleen in data set [4] came to 0.6 %ID/g. For the same molecule, in data set [5], the “^212Pb remained in PSC-PEG-T” value is reported as “More than 99.6%”.
